Source: patent US20030082809A1 (University of California, published 2003)

Assays:
Assay in all cases: cell-based or functional assay
[1] = target: GAD, GAL4-activation domain alone (UniProt P04386)
[2] = target: PIF3:GAD fusion protein (PIF3-GAL4-activation-domain fusion) (Arabidopsis) (UniProt O80536)
[3] = target: T1, PIF3:GAD fusion protein (PIF3-GAL4-activation-domain fusion) (Arabidopsis, UniProt O80536 1-524, limits assumed)
T1 sequence: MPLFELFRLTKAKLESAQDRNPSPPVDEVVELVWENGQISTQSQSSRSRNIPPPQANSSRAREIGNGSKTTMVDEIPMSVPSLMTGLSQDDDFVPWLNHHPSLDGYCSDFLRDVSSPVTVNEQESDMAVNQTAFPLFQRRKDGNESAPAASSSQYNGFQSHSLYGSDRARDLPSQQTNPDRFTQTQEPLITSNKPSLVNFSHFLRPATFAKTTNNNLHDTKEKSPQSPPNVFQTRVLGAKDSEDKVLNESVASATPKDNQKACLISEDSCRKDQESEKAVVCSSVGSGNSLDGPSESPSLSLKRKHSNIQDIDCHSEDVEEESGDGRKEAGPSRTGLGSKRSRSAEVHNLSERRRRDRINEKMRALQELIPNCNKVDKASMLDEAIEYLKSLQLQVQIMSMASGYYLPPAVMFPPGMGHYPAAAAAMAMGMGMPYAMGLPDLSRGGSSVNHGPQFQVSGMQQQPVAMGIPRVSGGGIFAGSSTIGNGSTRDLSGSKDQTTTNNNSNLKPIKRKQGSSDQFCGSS

Sequence of GAD, GAL4-activation domain alone (P04386 768-881 limits assumed): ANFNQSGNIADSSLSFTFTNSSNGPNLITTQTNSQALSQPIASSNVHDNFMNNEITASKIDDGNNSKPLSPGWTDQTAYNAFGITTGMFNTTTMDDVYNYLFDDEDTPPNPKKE

GBD, GAL4 DNA-binding domain alone (from UniProt P04386 1-147)
LacZ activity (M. U.), yeast two-hybrid liquid assay, Dark [1]: 0.1 M. U.
LacZ activity (M. U.), yeast two-hybrid liquid assay, Rp [1]: 0.2 M. U.
LacZ activity (M. U.), yeast two-hybrid liquid assay, Rp/FRp [1]: 0.2 M. U.

phyB(NT):GBD fusion protein, Pr form (PCB chromophore, in darkness or after far-red light) (from UniProt P14713 1-621; P04386 1-147)
LacZ activity (M. U.), yeast two-hybrid liquid assay, Dark [2]: 0.1 M. U.
LacZ activity (M. U.), yeast two-hybrid liquid assay, Rp/FRp (red pulse followed at once by far-red pulse) [2]: 0.1 M. U.

B1: phyB(NT):GBD fusion protein, Pfr form (PCB chromophore, after red light) (other, UniProt P14713 1-621, looked up)
chain: MVSGVGGSGGGRGGGRGGEEEPSSSHTPNNRRGGEQAQSSGTKSLRPRSNTESMSKAIQQYTVDARLHAVFEQSGESGKSFDYSQSLKTTTYGSSVPEQQITAYLSRIQRGGYIQPFGCMIAVDESSFRIIGYSENAREMLGIMPQSVPTLEKPEILAMGTDVRSLFTSSSSILLERAFVAREITLLNPVWIHSKNTGKPFYAILHRIDVGVVIDLEPARTEDPALSIAGAVQSQKLAVRAISQLQALPGGDIKLLCDTVVESVRDLTGYDRVMVYKFHEDEHGEVVAESKRDDLEPYIGLHYPATDIPQASRFLFKQNRVRMIVDCNATPVLVVQDDRLTQSMCLVGSTLRAPHGCHSQYMANMGSIASLAMAVIINGNEDDGSNVASGRSSMRLWGLVVCHHTSSRCIPFPLRYACEFLMQAFGLQLNMELQLALQMSEKRVLRTQTLLCDMLLRDSPAGIVTQSPSIMDLVKCDGAAFLYHGKYYPLGVAPSEVQIKDVVEWLLANHADSTGLSTDSLGDAGYPGAAALGDAVCGMAVAYITKRDFLFWFRSHTAKEIKWGGAKHHPEDKDDGQRMHPRSSFQAFLEVVKSRSQPWETAEMDAIHSLQLILRDSFKESMKLLSSIEQACDICRLKKLKCSKEKPKCAKCLKNNWECRYSPKTKRSPLTRAHLTEVESRLERLEQLFLLIFPREDLDMILKMDSLQDIKALLTGLFVQDNVNKDAVTDRLASVETDMPLTLRQHRISATSSSEESSNKGQRQLTVS
modifications: phycocyanobilin (PCB) chromophore attached to the phytochrome moiety (residue not stated); Pfr conformer after red light
LacZ activity, fold induction 5 min after a 1 min saturating red-light pulse [3]: 2 fold
LacZ activity, fold induction 10 min after a 1 min saturating red-light pulse [3]: 4 fold
LacZ activity, fold induction 30 min after a 1 min saturating red-light pulse [3]: 50 fold
induction of LacZ expression above background by a single red-light pulse [3]: 1000 fold
